As usually defined, the Km is the concentration of substrate that gives half-maximal velocity. The kcat is the number of substrate molecules converted per active site and unit of time at saturation.

For the data set, the system named is T1, CC(=O)N[C@H]1[C@H](Oc2ccc([N+](=O)[O-])cc2)O[C@H](CO)[C@@H](O[C@@H]2O[C@H](CO)[C@@H](O)[C@H](O)[C@H]2NC(C)=O)[C@@H]1O.
T1 construct: full length 658 residues with predicted signal peptide (residue 23) kept, C-terminal His6 (pET-28a(+)), E. coli BL21(DE3); peptides AATPTPVSAT, EDYKVLKNA, LTFINYAFGNVYQK
Kind of data set: p-nitrophenol release, Lineweaver-Burk plot. It is filed as biochemical, Chitinolyticbacter meiyuanensis. Particulars: 50 mM sodium citrate pH 5.2, 50 °C, 5 min, apparent, text b64 prints the same number as mg/mL, table unit agrees with printed kcat/Km 73.5 mL/s/μmol. The source says:
p-nitrophenol release, Lineweaver-Burk plot on CmChi1

CmChi1 (Chitinolyticbacter meiyuanensis), sequence (chain, as listed by the source): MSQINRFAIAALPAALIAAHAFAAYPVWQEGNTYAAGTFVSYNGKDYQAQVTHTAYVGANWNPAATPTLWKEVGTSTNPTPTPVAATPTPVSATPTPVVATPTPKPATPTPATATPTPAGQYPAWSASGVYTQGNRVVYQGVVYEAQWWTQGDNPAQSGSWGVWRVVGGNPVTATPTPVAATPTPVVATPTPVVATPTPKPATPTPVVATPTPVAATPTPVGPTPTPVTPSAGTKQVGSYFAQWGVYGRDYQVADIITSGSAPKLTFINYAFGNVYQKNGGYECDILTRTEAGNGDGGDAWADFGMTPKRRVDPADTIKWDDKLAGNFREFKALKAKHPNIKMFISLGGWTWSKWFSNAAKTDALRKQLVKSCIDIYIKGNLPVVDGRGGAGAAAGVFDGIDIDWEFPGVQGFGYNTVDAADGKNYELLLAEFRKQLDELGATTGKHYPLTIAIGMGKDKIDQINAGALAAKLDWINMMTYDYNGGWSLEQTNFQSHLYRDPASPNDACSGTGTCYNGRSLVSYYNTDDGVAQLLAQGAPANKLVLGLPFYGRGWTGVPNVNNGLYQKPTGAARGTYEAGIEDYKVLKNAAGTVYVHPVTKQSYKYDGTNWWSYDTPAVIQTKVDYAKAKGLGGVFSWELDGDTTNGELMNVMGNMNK

With “CmChi1 (Chitinolyticbacter meiyuanensis)”, the Km amounted to 0.58 ± 0.04 µmol/mL, the Vmax was 108.6 ± 3.3 (μmol/min/L), the kcat was 42.5 ± 1.4 s⁻¹ and the kcat/Km was 73.5 ± 2.6 (mL/s/μmol).

Source of the values: article PMC6020246, “Molecular characterization of a novel chitinase CmChi1 from Chitinolyticbacter meiyuanensis SYBC-H1 and its use in N-acetyl-D-glucosamine production” (Biotechnology for Biofuels, 2018).
